# Source: patent US11142588B2, “Polypeptides which bind C-X-C chemokine receptor type 4 (CXCR4) and methods of treating or reducing the risk of fibrosis and cancer” (AdAlta Limited, priority 2015, dated 2021)
# Entries after “also recorded” stand apart in the source; their conditions may differ.
# T1: CCR4 (Homo sapiens, UniProt P51679)
# T1 sequence (P51679 1-360): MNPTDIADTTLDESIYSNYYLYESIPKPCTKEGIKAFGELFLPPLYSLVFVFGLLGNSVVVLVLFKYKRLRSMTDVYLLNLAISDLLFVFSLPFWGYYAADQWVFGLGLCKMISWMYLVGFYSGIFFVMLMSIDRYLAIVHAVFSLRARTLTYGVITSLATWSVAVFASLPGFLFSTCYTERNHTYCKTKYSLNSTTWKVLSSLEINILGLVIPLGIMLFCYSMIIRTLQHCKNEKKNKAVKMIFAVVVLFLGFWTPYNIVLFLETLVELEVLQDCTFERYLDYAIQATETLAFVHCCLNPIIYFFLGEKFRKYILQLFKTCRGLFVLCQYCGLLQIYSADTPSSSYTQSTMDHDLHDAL
# B1: AM4-272-6H: AM4-272 with 6 His tag, containing the N-terminal sequence EAEA (protein)
# chain: EAEALQVDIVPSQGEISVGESKFFLCQVAGSYSDYRISWFSPNGEKLTPNQQRISVVWNDDSSSTLTIYNANIDDAGIYKCVVYRIGGYRHRYLVLGEATVNVKIFQ
# modifications: left off: small tags and cut ends
# B2: ADCX-99: CXCR4 binding i-body, SEQ ID NO: 11, parent of affinity matured binders (protein)
# chain: LQVDIVPSQGEISVGESKFFLCQVAGSGSDIRISWFSPNGEKLTPNQQRISVVWNDDSSSTLTIYNANIDDAGIYKCVVYRTGGYRHRALVLGEATVNVKIFQ
# modifications: ADCX-99 protein sequence
# What was measured:
# [1] = system: HIV entry into CXCR4 expressing T-cells; test: In vitro HIV inhibition assay; format: cell-based; settings: Human immunodeficiency virus 1, T-cell
# Ramos tumor cells [2] = test: MTT cell proliferation assay; format: cell-based, human; settings: 24 to 72 hrs, AM3-114 at 10 μM
# Experimental: The ability of the CXCR4 molecules or polypeptides disclosed herein (i-bodies) to inhibit proliferation of Ramos tumor cells, a human Burkitt's lymphoma cell line expressing CXCR4 mentioned above, in vitro was examined in a MTT cell proliferation assay as described in (Lapteva (2005) Cancer Gene Therapy 12, 84-89). Cells were grown in a 96-well tissue culture plate and treated with a vehicle or the anti-CXCR4 body. The cells were then incubated with the MTT solution for approximately 4 hours. After this incubation period, a water-insoluble formazan dye is formed. After solubilization, the formazan dye is quantitated using a scanning multi-well spectrophotometer (ELISA reader).
# [3] = system: normal and IPF lung fibroblasts; test: Wound healing invasion assay of lung fibroblasts; format: cell-based, human
# Experimental: To determine the role of CXCR4 and CXCL12 in fibroblast invasion, normal and IPF lung fibroblasts were utilized in a wound healing invasion assay. ImageLock 96 well plates (Essen Bioscience) were coated with 50 μg/ml of Basement membrane extract (BME; Trevigen) for one hour at room temperature. Normal, and fibroblasts generated from lung biopsies of idiopathic pulmonary fibrosis (IPF) patients showing slow progression or rapid progression of the disease were plated (36,000 cells per well) on the BME-coated plates and incubated overnight. […] The BME was allowed to polymerize by incubating the plate at 37° C. for 15 minutes. The plates were then inserted into an IncuCyte Zoom imaging system and images were acquired every 2 hours for approximately 50 hours. Invasion was quantified using IncuCyte software (Essen Bioscience).
# Ramos tumor cells [4] = test: Apoptosis assay (annexin V / propidium iodide flow cytometry); format: cell-based, human; settings: annexin V and propidium iodide double positive, 24 or 72 hours
# Experimental: The ability of an i-body of the invention to induce apoptosis in Ramos tumor cells (a human Burkitt's lymphoma cell line) was examined in an apoptosis assay according to the methods as described in Mishra M et al (2011) J Cell Mol Med 15(11):2462-77. I-bodies were incubated with Ramos cells and examined by flow cytometry after 24 or 72 hours. The cells were stained for annexin V and propidium iodide which are classic markers for apoptosis. Cells which were double positive were assessed to have become apoptotic.
# [5] = cited from earlier work
# [6] = Bleomycin mouse model of pulmonary fibrosis; format: in vivo
# Text: The optimal dose of Bleomycin is 2 U/mouse and the optimal time for assessing fibrocyte recruitment was confirmed at day 4. At days 4 bronchoalvelolar lavage (BAL) fluids were collected for analysis of SDF-1 concentration. One half of the lung tissue was used to make single cell suspensions of the lung and the cells used for flow cytometry and assayed for CD45+, CXCR4+ and Collagen1+ (fibrocytes). The other half of the lung tissue was Sircol stained for the presence of collagen 1 and RNA will be tested for Col-1, Col-3 and SDF-1.
# SDF-1, fibrocytes and collagen deposition were monitored at Day 4. Groups were dosed with the i-body just prior to administration with Bleomycin. One half of the lung tissue was minced and washed in PBS and used to make single cell suspensions of the lung with Collagenase A and dispase treatment. The cells were then used for flow cytometry and assayed for CD45+, CXCR4+ and Collagen1+ fibrocytes. […]
# CCL2 and CCL5 protein = test: CCL2, CCL5, CXCL12 ELISA of fibroblast conditioned supernatants; format: cell-based, human; settings: 48 hours
# Text: Various reports indicate that CXCR4 signals in conjunction with other chemokine receptors, including CCR2.
# CCRF-CEM cells = test: Immunohistochemistry staining of tumours in spleen and liver of SCID/bg mice; settings: 130 μg/ml
# Experimental: Tissues were fixed in 10% neutral buffered formalin overnight and subsequently transferred into tissue cassettes and placed in 70% ethanol. The tissues were then paraffin embedded. Slides containing 4 μm sections were deparaffinized and hydrated by incubating them in two changes of xylene for five min each, followed by two changes of 100% ethanol for 3 min each, 70% ethanol for 2 min, 50% ethanol for 2 min, and distilled water for 5 min. Antigen retrieval was performed by incubating the slides in 10 mM Citric acid solution (pH 6.0) in an 80° C. oven overnight. The slides were subsequently washed in PBS and permeabilized in 10% methanol containing 0.4% H2O2 for 30 min. […] All slides were subsequently stained with biotinylated anti-His tag antibodies (Miltenyi Biotech) and developed using an HRP-DAB cell and tissue staining kit according to the manufacturer's instructions (R&D systems).
# [7] = target: CCR5 positive lipoparticles (Homo sapiens, UniProt P51681); test: Biacore SPR binding to CCR5 positive lipoparticles (off-target control)
# [8] = Binding to null lipoparticles (off-target control)
# Experimental: (FIGS. 2A-2C, 5A-5C, 11A-11D, 17A-17B) Kinetic binding analysis of selected i-bodies with immobilized CXCR4 lipoparticles were performed at 25° C. using Biacore T200 instrument (GE Healthcare, Uppsala, Sweden). Streptavidin immobilization was performed in 1×HBS-P+ running buffer (10 mM HEPES, 150 mM NaCl, 0.05% [v/v] Tween-20). Amine coupling kit (GE Healthcare) and the instructions therein were utilized for the attachment of Streptavidin (Sigma; diluted to 100 μg/mL in 10 mM sodium acetate buffer pH 4.5) in all four channels on the sensor chip surface simultaneously, resulting in >6,000 RU of Streptavidin being coupled (1 RU=1 pg protein/mm^2). All binding experiments involving lipoparticles were performed with 1×HBS/BSA (10 mM HEPES, 150 mM NaCl, 1 mg/mL BSA) as instrument running buffer. Biotinylated CXCR4 lipoparticles (Integral Molecular, Cat #LEV-101B; 3.6 U/mL as described in WO 2005/042695) were typically diluted 1 in 20 in the running buffer and immobilized onto a Streptavidin containing channel by injecting at […] for 1,800 sec resulting in captured response levels of greater than 2,500 RU. […] In order to determine binding kinetics, serial dilutions (three-fold) of i-bodies diluted in 1×HBS/BSA were injected over immobilized lipoparticles with the association and dissociation phases monitored for 60 sec and 600 sec, respectively. […]
# CCR4 = target: T1, CCR4; test: PathHunter (DiscoverX) β-arrestin assay, CCR4; format: cell-based
# Experimental: (FIG. 9) The PathHunter® β-Arrestin assay (DiscoveRx) was performed according to the manufacturer's protocol. Cells were seeded into white walled, 384-well tissue culture-treated microplates (Corning) and normalized at 5,000 cells (or 10,000 cells for CXCR4) in a total volume of […]. Cell growth was at 37° C. (5% CO2, 95% relative humidity). […] Agonists were then added at the EC80 concentration and incubation was continued at 37° C. for 90 min (or 180 min for CCR1). Assay signal was generated through a single addition of 15 μL (50% v/v) of PathHunter Detection reagent cocktail, followed by 1 h incubation at room temperature. Microplates were read following signal generation with a PerkinElmer Envision instrument for chemiluminescent signal detection of relative light units (RLU).
# CXCR4 = CXCR4 (Homo sapiens, UniProt P61073); test: β-arrestin BRET assay, antagonist mode with 100 nM SDF-1; format: cell-based; set-up: expressed in transfected cells; host or cells: HEK293FT
# How it was run: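 Ten concentrations of i-body with 100 nM SDF-1 were applied to transiently transfected HEK293FT cells carrying CXCR4/Rluc8 donor and β-arrestin2/Venus acceptor. Emissions at 400-475 and 520-540 nm were read at 37 °C, and the vehicle-subtracted ratio gave the BRET signal (four independent duplicate experiments).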
# Sequence of CXCR4 (P61073 whole entry): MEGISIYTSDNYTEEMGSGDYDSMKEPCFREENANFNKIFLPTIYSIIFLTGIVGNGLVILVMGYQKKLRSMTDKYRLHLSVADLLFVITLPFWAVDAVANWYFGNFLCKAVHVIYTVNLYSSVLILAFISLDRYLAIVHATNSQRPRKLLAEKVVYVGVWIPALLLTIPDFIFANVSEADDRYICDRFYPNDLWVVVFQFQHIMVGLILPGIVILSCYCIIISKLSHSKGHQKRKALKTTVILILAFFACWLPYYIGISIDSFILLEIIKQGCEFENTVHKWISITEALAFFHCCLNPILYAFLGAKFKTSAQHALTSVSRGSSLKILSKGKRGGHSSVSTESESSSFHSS
# Sequence of CCR5 positive lipoparticles (P51681 whole entry): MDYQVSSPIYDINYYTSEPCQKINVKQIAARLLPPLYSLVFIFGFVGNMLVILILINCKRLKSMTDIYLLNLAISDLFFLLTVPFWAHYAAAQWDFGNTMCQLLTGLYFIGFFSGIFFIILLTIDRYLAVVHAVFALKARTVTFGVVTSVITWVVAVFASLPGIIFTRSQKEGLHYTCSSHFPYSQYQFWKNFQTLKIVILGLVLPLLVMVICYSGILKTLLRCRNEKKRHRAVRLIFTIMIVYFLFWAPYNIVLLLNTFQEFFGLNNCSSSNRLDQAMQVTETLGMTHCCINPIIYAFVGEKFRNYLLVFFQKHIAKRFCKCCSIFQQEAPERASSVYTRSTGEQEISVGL
Molecule,IC50 [1],growth of RAMOS cells (Ramos tumor cells [2]),"invasion / motility of normal, slow and rapid IPF lung fibroblast lines ([3]; AMD3100 12 μM, 21H5 130 μg/ml)",induction of apoptosis in Ramos cells (Ramos tumor cells [4]),development of pulmonary fibrosis in irradiated mice ([5]; Shu et al 2013),bleomycin induced pulmonary fibrosis ([5]; Xu et al 2007),"recruitment of fibrocytes into the lungs ([6]; day 4, dose not given)","collagen content of the lung (Sircol) ([6]; positive controls, dose not stated)",CCL2 protein in IPF fibroblast conditioned supernatants (CCL2 and CCL5 protein),staining of CCRF-CEM cells in spleen and liver (CCRF-CEM cells),invasion of rapid-IPF (fast progressor) lung fibroblasts ([3]; 130 μg/ml),invasion of slow-IPF lung fibroblasts ([3]; 130 μg/ml),CCL5 levels in IPF lung fibroblasts (CCL2 and CCL5 protein),binding to CCR5 positive lipoparticles [7],binding to null lipoparticles [8],CCR4 activity (CCR4),IC50 (nM) in β-Arrestin BRET assay (Antagonist mode in the presence of 100 nM SDF-1) (CXCR4),β-arrestin activity (CXCR4; various concentrations)
"c1cc(CN2CCCNCCNCCCNCC2)ccc1CN1CCCNCCNCCCNCC1 [AMD3100, reference compound]",50 nM,able to inhibit cell growth,had no effect,does not induce significant apoptosis,did not significantly suppress,effectively alleviate bleomycin induced pulmonary fibrosis,able to block recruitment of fibrocytes,reduction in collagen,markedly increased,–,–,–,–,–,–,–,–,–
B1,–,–,–,strongly induce apoptosis,–,–,–,–,markedly increased,stained CCRF-CEM cells,two out three,inhibited invasion,increased CCL5 levels in some IPF lung fibroblasts,–,–,–,–,–
B2,–,–,–,–,–,–,–,–,–,–,–,–,–,did not bind; also recorded: very little binding,did not bind; also recorded: very little binding,34%,very weak effect; also recorded: No activity,some degree of inhibition
